From US20240409645A1 come the findings set out here.

The assay concerns the target T1, mouse IL-2Rγ (mouse) (UniProt P34902).
T1 sequence (looked up): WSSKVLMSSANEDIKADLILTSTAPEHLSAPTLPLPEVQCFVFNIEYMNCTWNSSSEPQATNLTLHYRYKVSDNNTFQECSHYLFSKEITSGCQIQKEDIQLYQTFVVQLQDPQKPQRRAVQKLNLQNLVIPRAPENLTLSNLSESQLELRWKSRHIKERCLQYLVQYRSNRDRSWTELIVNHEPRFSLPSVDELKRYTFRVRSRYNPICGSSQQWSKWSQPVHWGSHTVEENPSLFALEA
The assay is described as follows: PE binding ELISA, periplasmic extract on coated protein. Background: An ELISA detects its analyte on a solid surface through an enzyme-linked reagent.

B1: FJ1427_P035MP04B03 (VHH)
VHH: QVQLQESGGGLVQAGESLRLSCAASGPTASRVAVAWFRQVPGKEREFVAVVNRPGTMTKYADSVKGRFTISRDSAKNTVYLQMNSLKPEDTAVYYCAADSVPYGRPYYFQTSAGNYDYWGQGTQVTVSS
In the case of B1, the OD (PE binding ELISA) amounted to 0.048 OD450 nm.

B2: FJ1427_P035MP04D08 (VHH)
VHH: QVQLVESGGGLVQAGESLRLSCAASGPTASRVAVAWFRQVPGKEREFVAVVNRPGTMTKYADSVKGRFTISRDSAKNTVYLQMNSLKPEDTAVYYCAADSVPYGRPYYFQTSAGNYDYWGQGTQVTVSS
B2 came in with an OD (PE binding ELISA) of 0.048 OD450 nm.

B3: FJ1427_P035MP04A11 (VHH)
VHH: QVQLVESGGGLVQAGESLRLSCAASGPTASRVAVAWFRQVPGKEREFVAVVNRPGTMTKYADSVKGRFTISRDSAKNTVYLQMNSLKPEDTAVYYCAADSVPYGRPYYFQTSAGNYDYWGQGTQVTVSS
B3 showed an OD (PE binding ELISA) of 0.05 OD450 nm.

B4: FJ1427_P035MP04G09 (VHH)
VHH: QVQLQESGGGLVQAGGSLRLSCAASGPTFSRVAVGWFRQVPGKEREFVAAVNRPATMTKYADSVKGRFTISRDNAKNTVDLQMNSMKPEDTAVYYCAADSVPYGRPYYFQTSAGEYDYWGQGTQVTVSS
As to B4, the OD (PE binding ELISA) was found to be 0.05 OD450 nm.

B5: FJ1427_P035MP04A04 (VHH)
VHH: QVQLVESGGGLVQAGESLRLSCAASGPTASRVAVAWFRQVPGKEREFVAVVNRPGTMTKYADSVKGRFTISRDSAKNTVYLQMNSLKPEDTAVYYCAADSVPYGRPYYFQTSAGNYDYWGQGTQVTVSS
B5 showed an OD (PE binding ELISA) of 0.05 OD450 nm.

B6: FJ1427_P035MP04C11 (VHH)
VHH: QVQLVESGGGLVQHGGSLRLSCAASGPTFSRVAVGWFRQVPGKEREFVAVVNRPGSMTKYADSVKGRFNISRDTAKNTVYLQMNSLKPEDTAVYYCAADSVPYGRPYYFTTSAGDYDYWGQGTQVTVSS
As for B6, the OD (PE binding ELISA) came to 0.047 OD450 nm.

B7: FJ1427_P035MP04H08 (VHH)
VHH: EVQLVESGGGLVQAGESLRLSCAASGPTASRVAVAWFRQVPGKEREFVAVVNRPGTMTKYADSVKGRFTISRDSAKNTVYLQMNSLKPEDTAVYYCAADSVPYGRPYYFQTSAGNYDYWGQGTQVTVSS
In turn, B7 returned an OD (PE binding ELISA) of 0.053 OD450 nm.

B8: FJ1427_P035MP04F02 (VHH)
VHH: QLQLVESGGGLVQAGGSLTLSCAASGRTFSRDVVGWFRQAPGKEREFVASISRSGDGTFYTDSVKGRFTISSRDNAKNTVLLQMNSLKVEDTAVYYCAAGDGWSTYDYWGQGTQVTVSS
The molecule B8 yielded an OD (PE binding ELISA) of 0.049 OD450 nm.

B9: FJ1427_P035MP04E02 (VHH)
VHH: QVQLVESGGGWVQVGESLRLSCAPSGRTFVSGIMGWFRQTPGKEREFVARIILNNNSTRYTDSVKGRFTISRDSAKNTMYLQMNTLRPEDTAVYYCAARDRYGSGNSLSPSAYDYWGQGTQVTVSS
Take B9: the OD (PE binding ELISA) was 0.049 OD450 nm.

B10: FJ1427_P035MP04G03 (VHH)
VHH: EVQLVESGGGWVQVGESLRLSCAPSGRTFVSGIMGWFRQAPGKEREFVARIILNNNSTRYTDSVKGRFTISRDSAKNTMYLQMDSLRPEDTAVYYCAARDRYGSGNSLSPSAYDYWGQGTQVTVSS
Regarding B10, the OD (PE binding ELISA) was 0.049 OD450 nm.

B11: FJ1427_P035MP04B10 (VHH)
VHH: EVQLVESGGGWVQVGESLRLSCAPSGRTFVSGIMGWFRQAPGKEREFVARIILNNNSTRYIDSVKGRFTISRDSAKNTMYLQMDSLRPEDTAVYYCAARDRYGSGNSLSPSAYDYWGQGTQVTVSL
As for B11, the OD (PE binding ELISA) was determined as 0.047 OD450 nm.

B12: FJ1427_P035MP04H09 (VHH)
VHH: EVQLVESGGGWVQVGESLRLSCAPSGRTFVSGIMGWFRQAPGKEREFVARIILNNNSTRYTDSVKGRFTISRDSAKNTMYLQMNTLRPEDTAVYYCAARDRYGSGNSLSPSAYDYWGQGTQVTVSS
B12 returned an OD (PE binding ELISA) of 0.05 OD450 nm.

B13: FJ1427_P035MP04B11 (VHH)
VHH: EVQLVESGGGWVQVGESLRLSCAPSGRTFVSGIMGWFRQAPGKEREFVARIILNNNSTRYIDSVKGRFTISRDSAKNTMYLQMDSLRPEDTAVYYCAARDRYGSGNSLSPSAYDYWGQGTQVTVSS
In turn, B13 had an OD (PE binding ELISA) of 0.047 OD450 nm.

B14: FJ1427_P035MP04A07 (VHH)
VHH: QLQLVESGGGWVQVGESLRLSCAPSGRTFVSGIMGWFRQAPGKEREFVARIILNNNSTRYIDSVKGRFTISRDSAKNTMYLQMDSLRPEDTAVYYCAARDRYGSGNSLSPSAYDYWGQGTQVTVSS
B14 registered an OD (PE binding ELISA) of 0.049 OD450 nm.

B15: FJ1427_P035MP04F10 (VHH)
VHH: QLQLVESGGGWVQVGESLRLSCVPSGRTFVSGIMGWFRQAPGKEREFVARIISNNNSTRYTDSVKGRFTISRDSAKNTMYLQMNTLRPEDTAVYYCAARDRYGSGNSLSPSAYDYWGQGTQVTVSS
Molecule B15 registered an OD (PE binding ELISA) of 0.048 OD450 nm.

B16: FJ1427_P035MP04B06 (VHH)
VHH: QLQLVESGGGWVQVGESLRLSCVPSGRTFVSGIMGWFRQAPGKEREFVARIILNNNSTRYTDSVKGRFTISRDSAKNTMYLQMNTLRPEDTAVYYCAARDRYGSGNSLSPSAYDYWGQGTQVTVSS
As for B16, the OD (PE binding ELISA) came to 0.048 OD450 nm.

B17: FJ1427_P035MP04C05 (VHH)
VHH: QVQLVESGGGWVQVGESLRLSCAPSGRTFVSGIMGWFRQAPGKEREFVARIILNNNSTRYTDSVKGRFTISRDSAKDTMYLQMNTLRPEDTAVYYCAARDRYGSGNSLSPSAYDYWGQGTQVTVSS
B17 had an OD (PE binding ELISA) of 0.047 OD450 nm.

B18: FJ1427_P035MP04G10 (VHH)
VHH: QVQLVESGGGWVQVGESLRLSCAPSGRTFVSGIMGWFRQAPGKEREFVARIILNSNSTRYTDSAKGRFTISRDSAKNTMYLQMDSLRPEDTAVYYCAARDRYGSGNSLSPSAYDYWGQGTQVTVSS
B18: the OD (PE binding ELISA) amounted to 0.049 OD450 nm.

B19: FJ1427_P035MP04G08 (VHH)
VHH: QVQLVESGGGWVQVGESLRLSCAPSGRTFVSGIMGWFRQAPGKEREFVARIILNNNSTRYTDSVKGRFTISRDSAKNTMYLQMDSLRPEDTAVYYCAARDRYGSGNSLSPSAYDYWGQGTQVTVSS
Turning to B19, the OD (PE binding ELISA) turned out to be 0.049 OD450 nm.

B20: FJ1427_P035MP04F09 (VHH)
VHH: QVQLVESGGGWVQVGESLRLSCAPSGRTFVRGIMGWFRQAPGKEREFVARIILNNNSTRYTDSVKGRFTISRDSAKNTMWLQMDSLRPEDTAVYYCAARDRYGSGNSLSPSAYDYWGQGTQVTVSS
Take B20: the OD (PE binding ELISA) turned out to be 0.049 OD450 nm.

B21: FJ1427_P035MP04A10 (VHH)
VHH: EVQLVESGGGWVQVGESLRLSCAPSGRTFVSGIMGWFRQAPGKEREFVARIILNNNSTRYTDSVKGRFTISRDSAKNTMYLQMNTLRPEDTAVYYCAARDRYGSGNSLSPSAYDYWGQGTQVTVSS
B21: the OD (PE binding ELISA) was determined as 0.048 OD450 nm.

B22: FJ1427_P035MP04B07 (VHH)
VHH: EVQLVESGGGWVQVGESLRLSCAPSGRTFVSGIMGWFRQTPGKEREFVARIILNNNSTRYTDSVKGRFTISRDSAKNTLYLQMNTLRPEDTAVYYCAARDRYGSGNSLSPSAYDYWGQGTQVTVSS
For B22, the OD (PE binding ELISA) was 0.047 OD450 nm.

B23: FJ1427_P035MP04A03 (VHH)
VHH: EVQLVESGGGWVQVGESLRLSCAPSGRTFVSGIMGWFRQTPGKEREFVARIILNNNSTRYTDSVKGRFTISRDSAKNTMYLQMNTLRPEDTAVYYCAARDRYGSGNSLSPSAYDYWGQGTQVTVSS
Consider B23, for which the OD (PE binding ELISA) was 0.052 OD450 nm.

B24: FJ1427_P035MP04G07 (VHH)
VHH: QVQLVESGGGWVQVGESLRLSCAPSGRTFVSGIMGWFRQAPGKEREFVARIILNNNSTRYTDSVKGRFTISRDSAKNTMYLQMNTLRPEDTAVYYCAARDRYGSGNSLSPSAYDYWGQGTQVTVSS
Take B24: the OD (PE binding ELISA) was determined as 0.049 OD450 nm.

B25: FJ1427_P035MP04D09 (VHH)
VHH: QVQLVESGGGWVQVGESLRLSCAPSGRTFVRGIMGWFRQAPGKEREFVARIILNSNSTRYIDSVKGRFTISRDSAKNTMYLQMNSLRPEDTAVYYCAARDRYGSGNSLSPSAYDYWGQGTQVTVSS
As for B25, the OD (PE binding ELISA) came to 0.048 OD450 nm.

B26: FJ1427_P035MP04E04 (VHH)
VHH: EVQLVESGGGWVQVGESLRLSCVPSGRTFVSGIMGWFRQAPGKEREFVARIILNSNSTRYTDSVKGRFTISRDSAKNTMYLQMNSLRPEDTAVYYCAARDRYGSGNSLSPSAYDYWGQGTQVTVSS
Molecule B26 registered an OD (PE binding ELISA) of 0.048 OD450 nm.

B27: FJ1427_P035MP04C10 (VHH)
VHH: QVQLQESGGGWVQVGESLRLSCVPSGRTFVSGIMGWFRQAPGKEREFVARIILNNNSTRYTDSVKGRFTISRDSAKNTMYLQMNTLRPEDTAVYYCAARDRYGSGNSLSPSAYDYWGQGTQVTVSS
In turn, B27 showed an OD (PE binding ELISA) of 0.047 OD450 nm.

B28: FJ1427_P035MP04H10 (VHH)
VHH: QVQLVESGGGLVQAGGSLRLSCAPSGRTFVSGIMGWFRQAPGKEREFVARIILNNNSTRYIDSVKGRFTISRDSAKNTMYLQMDSLRPEDTAVYYCAARDRYGSGNSLSPSAYDYWGQGTQVTVSS
B28 gave an OD (PE binding ELISA) of 0.049 OD450 nm.

B29: FJ1427_P035MP04A09 (VHH)
VHH: QVQLVESGGGLVQAGGSLRLSCAASGRTFGAVAVGWFRQVPGKEREFVAAINRNGSATKYADSAKGRFTISRDNAESPVYLQMNSLKPEDTAIYYCAADSLPYGRPYYFQTSAGEYDYWGQGTQVTVSS
Molecule B29 came in with an OD (PE binding ELISA) of 0.049 OD450 nm.

B30: FJ1427_P035MP04D11 (VHH)
VHH: EVQLVESGGGLVQAGGSLRLSCAASGRTFGAVAVGWFRQVPGKEREFVAAINRSGSATKYADSVKGRFTISRDNAESPVFLQMNSLKPEDTAVYYCAADSLPYGRPYYFQTSAGEYDYWGQGTQVTVSS
As for B30, the OD (PE binding ELISA) was 0.048 OD450 nm.
